The record followed here is publication PMC5001929 (Cell reports, 2016).

The target of this experiment is T1, Gremlin-2 (UniProt O88273 22-168).
T1 sequence: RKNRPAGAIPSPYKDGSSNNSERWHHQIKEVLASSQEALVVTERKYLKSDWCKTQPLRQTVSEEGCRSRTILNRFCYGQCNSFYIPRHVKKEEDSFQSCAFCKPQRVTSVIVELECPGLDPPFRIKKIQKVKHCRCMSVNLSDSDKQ
Nature of the experiment: SPR. For orientation: In SPR one partner is held on a chip, and binding of the other changes the refractive index at the surface.

One may read the Kd as the concentration at which binding is half-saturated.

B1: BMP2 (ligand, UniProt P12643 283-396, looked up)
chain: QAKHKQRKRLKSSCKRHPLYVDFSDVGWNDWIVAPPGYHAFYCHGECPFPLADHLNSTNHAIVQTLVNSVNSKIPKACCVPTELSAISMLYLDENEKVVLKNYQDMVVEGCGCR
Consider B1, for which the Kd was 9 nM. This lies in the single-digit nanomolar range.

B2: GDF5 (ligand, UniProt P43026 382-501, looked up)
chain: APLATRQGKRPSKNLKARCSRKALHVNFKDMGWDDWIIAPLEYEAFHCEGLCEFPLRSHLEPTNHAVIQTLMNSMDPESTPPTCCVPTRLSPISILFIDSANNVVYKQYEDMVVESCGCR
With B2, the affinity, expressed as Kd, was 146 nM.
